T1: IL-10R (Homo sapiens, UniProt Q13651)
T1 construct: uninfected tumor cells express the IL-10R complex; endogenous in cells; host or cells: MDA-MB-231 human breast cancer cells
T1 sequence (Q13651 22-578): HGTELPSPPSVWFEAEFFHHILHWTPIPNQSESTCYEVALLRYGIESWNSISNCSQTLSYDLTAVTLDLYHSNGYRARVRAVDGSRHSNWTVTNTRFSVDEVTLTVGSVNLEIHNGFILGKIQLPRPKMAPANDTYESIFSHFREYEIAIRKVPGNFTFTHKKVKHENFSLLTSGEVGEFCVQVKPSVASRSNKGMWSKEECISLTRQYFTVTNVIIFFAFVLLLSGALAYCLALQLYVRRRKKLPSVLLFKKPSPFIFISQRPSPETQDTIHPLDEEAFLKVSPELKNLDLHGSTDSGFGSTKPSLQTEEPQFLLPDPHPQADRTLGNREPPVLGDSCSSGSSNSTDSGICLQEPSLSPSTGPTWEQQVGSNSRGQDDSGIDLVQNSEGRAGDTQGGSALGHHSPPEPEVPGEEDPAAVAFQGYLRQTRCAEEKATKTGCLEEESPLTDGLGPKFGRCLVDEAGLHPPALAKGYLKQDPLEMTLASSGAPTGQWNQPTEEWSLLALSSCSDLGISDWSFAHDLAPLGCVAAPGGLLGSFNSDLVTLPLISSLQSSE
T1 sequence (Q08334 20-325 partner): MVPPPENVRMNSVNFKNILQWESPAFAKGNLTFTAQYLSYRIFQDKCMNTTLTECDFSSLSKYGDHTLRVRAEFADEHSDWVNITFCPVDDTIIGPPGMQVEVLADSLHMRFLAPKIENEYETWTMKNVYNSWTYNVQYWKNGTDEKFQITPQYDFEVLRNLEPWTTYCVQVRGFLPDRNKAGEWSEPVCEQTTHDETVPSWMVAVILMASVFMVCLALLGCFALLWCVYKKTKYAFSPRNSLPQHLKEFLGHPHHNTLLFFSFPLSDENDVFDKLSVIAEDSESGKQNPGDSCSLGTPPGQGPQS

B1: cmvIL-10 (protein)
chain: ATTTTIKNTKPQCRPEDYATRLQDLRVTFHRVKPTLQREDDYSVWLDGTVVKGCWGCSVMDWLLRRYLEIVFPAGDHVYPGLKTELHSMRSTLESIYKDMRQCPLLGCGDKSVISRLSQEAERKSDNGTRKGLSELDTLFSRLEEYLHSRK

Tests used:
PAI-1 = PAI-1 ELISA on culture supernatants; type: cell-based, human; conditions: 10 ng/ml; for PAI-1 production: after 24 hours, maintained over 72 hours
Method: (§1) DuoSet ELISA kits (R&D Systems) were used to quantify uPAR, PAI-1, and MMP-3. For uPAR and PAI-1 measurement, MDA cells were seeded in triplicate in 96-well plate at 5.0×10^4 cell/mL density with complete L-15 media and treated with 10 ng/mL of either cmvIL-10 or hIL-10 for the indicated times and supernatants were collected daily. The ELISA was carried out on supernatants according to manufacturer's instructions using and following the addition of substrate and stop solution, absorbance of the plate was measured at 450 nm using a Dynex Opsys MR microplate reader. Sample concentrations were interpolated from a standard curve using linear regression analysis. For cell-associated MMP-3, MDA cells were seeded in 96-well plates and treated with cmvIL-10 as above. Cells were treated with cell lysis buffer (150 mM NaCl, 20 mM HEPES, 0.5% Triton-X-100, 1.0 mM NaOV4, 1.0 mM EDTA, 0.1% NaN3) supplemented with 1× protease inhibitors (Calbiochem, EMD Chemicals, San Diego Calif.) and were collected daily for the indicated time points. The lysates were evaluated for MMP-3 according to the manufacturer's instructions (R&D Systems).

uPAR = uPAR ELISA on culture supernatants; type: cell-based, human; conditions: 10 ng/ml
Method: as §1

MDA-MB-231 cells = assay: Standard cell counts (hemacytometer); type: cell-based, human; conditions: 100 ng/ml, 6-well dishes
Method: Cells were seeded into 96-well dishes at a density of 1×10^4 cell per well in complete medium with varying doses of cmvIL-10, and then cell viability measured at the indicated time points using the Cell Titer Glo Assay kit according to manufacturer's instructions (Promega). DNA synthesis was measured in cells prepared in the same way using the BrdU Cell Proliferation ELISA Kit (Roche, Basel, Switzerland). For experiments using inhibitors, cells were cultivated in 96-well dishes as above with a final concentration of 10 μM inhibitor and BrdU incorporation evaluated after 72 hrs. For cell counts, cells were seeded into 6-well plates at a density of 2×10^5 cells per well, harvested via trypsinization, and counted using a hemacytometer at the indicated time points. The TACS Annexin V-FITC Detection Kit (Trevigen, Gaithersburg, Md.) was used to stain cells harvested from 70% confluent T75 flasks that had been treated with 100 μM etoposide for 48 hrs in the presence or absence of 100 ng/ml cmvIL-10. Cells were then analyzed via flow cytometry to detect fluorescence. For viability assays, Cell Titer Glo reagent was utilized to quantify cells that had been seeded into 96-well dishes at a density of 1×10^4 cell per well in complete medium with varying doses of etoposide in the presence or absence of 100 ng/ml cmvIL-10 as indicated

Stat3 = assay: Cell-based Stat3 ELISA; set-up: species or system human; conditions: varying doses, 15 min
Method: For the Stat3 ELISA, cells were seeded into 96-well dishes at a density of 1×10^4 cell per well, treated with varying doses of cmvIL-10 in triplicate for 15 min, and then lysed in the plate and assayed for total or pStat3 using the Cell-based Stat3 ELISA kit according to manufacturer's instructions (R&D Systems). The detection of hIL-10 in supernatants from MDA-MB-231 cell cultures was performed using the IL-10 ELISA DuoSet kit as directed (R&D Systems).

IL-10R = molecular target: T1, IL-10R; assay: IL-10R immunofluorescence microscopy; type: cell-based; conditions: MDA-MB-231 cells, 100 ng/ml, 15 min
Method: MDA-MB-231 cells were seeded into 6-well dishes containing FBS-coated glass coverslips at a density of 2×10^5 cells per well and then incubated for 48 hrs at 37° C. Cell monolayers were washed with PBS, fixed with 4% paraformaldehyde, then permeabilized with 0.2% (w/v) Triton X-100 followed by treatment with ice cold 50% methanol-50% acetone for 30 min. Cells were then blocked with PBS+10% FBS for 1 hr at 37° C. and stained with anti-IL-10Rα antibody (Santa Cruz Biotechnology) at a 1:100 dilution for 1 hr at 37° C. Following three PBS washes, the coverslips were incubated with TRITC-conjugated secondary antibody for 1 hr, washed again, and then mounted on a glass slide using Prolong Gold anti-fade reagent with DAPI (Life Technologies, Grand Island, N.Y.). HFF cells were also grown on coverslips as described, mock- or virus-infected, and stained with anti-IE1 (EMD Millipore) followed by FITC-conjugated secondary antibody. Images were acquired using a Zeiss LSM700 laser scanning confocal microscope using Zen Black software (Carl Zeiss, Inc., Oberkochen, Germany).

Row | Molecule | PAI-1 production (PAI-1) | uPAR protein levels (uPAR) | cell numbers (MDA-MB-231 cells) | PAI-1 protein secreted (PAI-1; 12 hours) | amount of Stat3 phosphorylation (pStat3 to total Stat3) (Stat3) | IL-10R distribution after treatment (IL-10R)
1 | hIL-10: purified recombinant human interleukin-10 from R&D Systems | significant increase in PAI-1 production | elevated | higher cell numbers than control cultures | – | – | –
2 | B1 | significant increase in PAI-1 production | elevated | higher cell numbers than control cultures | significantly increased | increased in a dose-dependent manner | distinct redistribution of IL-10R
